# Assay results taken from patent publication US20210292396A1.
# Experiments:
# Experiment in all cases: cell-based or functional assay
# [1] = target: HIV Env of isolate BaL.26 (HIV)
# [2] = target: Env of HIV isolate PVO.04 (clade B) (HIV)
# [3] = target: HIV Env of isolate BI369.9A (HIV)
# [4] = target: HIV Env of isolate BJOX025000.01.1 (HIV)
# [5] = target: HIV Env of isolate 25711-2.4 (HIV)
# [6] = target: Env of HIV isolate BJOX025000.01.1 (clade AE) (HIV)
# [7] = target: Env of HIV isolate Q259.17 (clade A) (HIV)
# [8] = target: HIV Env of isolate 3988.25 (HIV)
# [9] = target: Env of HIV isolate P1981.C5.3 (clade G) (HIV)
# [10] = target: Env of HIV isolate 3718.v3.c11 (clade A) (HIV)
# [11] = target: Env of HIV isolate 3817.v2.c59 (clade CD) (HIV)
# [12] = target: Env of HIV isolate BS208.B1 (clade A) (HIV)
# [13] = target: Env of HIV isolate QH0692.42 (clade B) (HIV)
# [14] = target: HIV Env of isolate CH117.4 (HIV)
# [15] = target: Env of HIV isolate YU2.DG (clade B) (HIV)
# [16] = target: Env of HIV isolate MB201.A1 (clade A) (HIV)
# [17] = target: HIV Env of isolate CNE21 (HIV)
# [18] = target: Env of HIV isolate TZBD.02 (clade C) (HIV)
# [19] = target: Env of HIV isolate TRO.11 (clade B) (HIV)
# [20] = target: HIV Env of isolate 25710-2.43 (HIV)
# [21] = target: HIV Env of isolate CNE56 (HIV)
# [22] = target: HIV Env of isolate 89.6.DG (HIV)
# [23] = target: Env of HIV isolate 6535.3 (clade B) (HIV)
# [24] = target: Env of HIV isolate CM244.ec1 (clade AE) (HIV)
# [25] = target: Env of HIV isolate SS1196.01 (clade B) (HIV)
# [26] = target: HIV Env of isolate UG021.16 (HIV)
# [27] = target: Env of HIV isolate HXB2.DG (clade B) (HIV)
# [28] = target: HIV Env of isolate 45_01dG5 (HIV)
# [29] = target: HIV Env of isolate PVO.04 (HIV)
# [30] = target: HIV Env of isolate JRFL.JB (HIV)
# [31] = target: HIV Env of isolate SS1196.01 (HIV)
# [32] = target: Env of HIV isolate CH038.12 (clade BC) (HIV)
# [33] = target: HIV Env of isolate T266-60 (HIV)
# [34] = target: HIV Env of isolate HXB2.DG (HIV) (UniProt P04578)
# [35] = target: HIV Env of isolate T278-50 (HIV)
# [36] = target: HIV Env of isolate TH966.8 (HIV)
# [37] = target: HIV Env of isolate BX08.16 (HIV)
# [38] = target: Env of HIV isolate RHPA.7 (clade B) (HIV)
# [39] = target: HIV Env of isolate 0330.v4.c3 (HIV)
# [40] = target: HIV Env of isolate 231965.c01 (HIV)
# [41] = target: HIV Env of isolate T257-31 (HIV)
# [42] = target: HIV Env of isolate CH070.1 (HIV)
# [43] = target: Env of HIV isolate NKU3006.ec1 (clade D) (HIV)
# [44] = target: Env of HIV isolate 6545.v4.c1 (clade AC) (HIV)
# [45] = target: Env of HIV isolate CNE53 (clade C in Table 7) (HIV)
# [46] = target: HIV Env of isolate KER2018.11 (HIV)
# [47] = target: Env of HIV isolate CNE30 (clade C in Table 7) (HIV)
# [48] = target: Env of HIV isolate C2101.c1 (clade AE) (HIV)
# [49] = target: HIV Env of isolate SC422.8 (HIV)
# [50] = target: HIV Env of isolate AC10.29 (HIV)
# [51] = target: Env of HIV isolate 6095.v1.c10 (clade ACD) (HIV)
# [52] = target: Env of HIV isolate 191821.E6.1 (clade D) (HIV)
# [53] = target: Env of HIV isolate 620345.c1 (clade AE) (HIV)
substance,measurement,setting,value
PGT121 (antibody),IC80,[1],0.06 µg/mL
same,"IC50, pseudovirus neutralization",[2],0.189 µg/mL
same,IC80,[3],0.085 µg/mL
same,IC80,[4],> 50 µg/mL
same,"IC80, pseudovirus neutralization",[5],0.0497 µg/mL
same,"IC50, pseudovirus neutralization",[6],> 50 µg/mL
same,"IC50, pseudovirus neutralization",[7],> 50 µg/mL
same,IC80,[8],0.0287 µg/mL
same,"IC50, pseudovirus neutralization",[9],0.007 µg/mL
same,"IC50, pseudovirus neutralization",[10],0.559 µg/mL
same,"IC50, pseudovirus neutralization",[11],22.2 µg/mL
same,"IC50, pseudovirus neutralization",[12],> 50 µg/mL
same,"IC50, pseudovirus neutralization",[13],0.972 µg/mL
same,"IC80, pseudovirus neutralization",[14],> 50 µg/mL
same,"IC50, pseudovirus neutralization",[15],0.0397 µg/mL
same,"IC50, pseudovirus neutralization",[16],0.00933 µg/mL
same,"IC80, pseudovirus neutralization",[17],0.0383 µg/mL
same,"IC50, pseudovirus neutralization",[18],0.0257 µg/mL
same,"IC50, pseudovirus neutralization",[19],0.0203 µg/mL
same,"IC80, pseudovirus neutralization",[20],0.066 µg/mL
same,IC80,[21],> 50 µg/mL
same,IC80,[22],0.0783 µg/mL
same,"IC50, pseudovirus neutralization",[23],0.00633 µg/mL
same,"IC50, pseudovirus neutralization",[24],> 50 µg/mL
same,"IC50, pseudovirus neutralization",[25],0.0123 µg/mL
same,"IC80, pseudovirus neutralization",[26],> 50 µg/mL
same,"IC50, pseudovirus neutralization",[27],> 50 µg/mL
same,IC80,[28],0.0257 µg/mL
same,IC80,[29],0.498 µg/mL
same,IC80,[30],0.107 µg/mL
same,IC80,[31],0.0307 µg/mL
same,"IC50, pseudovirus neutralization",[32],0.0113 µg/mL
same,IC80,[33],0.548 µg/mL
same,IC80,[34],> 50 µg/mL
same,IC80,[35],> 50 µg/mL
same,IC80,[36],> 50 µg/mL
same,IC80,[37],0.021 µg/mL
same,"IC50, pseudovirus neutralization",[38],0.0357 µg/mL
same,IC80,[39],0.211 µg/mL
same,"IC80, pseudovirus neutralization",[40],> 50 µg/mL
same,IC80,[41],> 50 µg/mL
same,"IC80, pseudovirus neutralization",[42],0.0423 µg/mL
same,"IC50, pseudovirus neutralization",[43],> 50 µg/mL
same,"IC50, pseudovirus neutralization",[44],> 50 µg/mL
same,"IC50, pseudovirus neutralization",[45],0.0263 µg/mL
same,IC80,[46],> 50 µg/mL
same,"IC50, pseudovirus neutralization",[47],0.114 µg/mL
same,"IC50, pseudovirus neutralization",[48],> 50 µg/mL
same,IC80,[49],0.3 µg/mL
same,IC80,[50],0.149 µg/mL
same,"IC50, pseudovirus neutralization",[51],1.98 µg/mL
same,"IC50, pseudovirus neutralization",[52],> 50 µg/mL
same,"IC50, pseudovirus neutralization",[53],> 50 µg/mL
